Substrate in series [1]: O=C=O
Description: Activity at human carbonic anhydrase VA by spectrophotometry at pH 7.5.

Substrate in series [2]: O=C=O
The experiment in a line: Ratio of kcat to Km for human carbonic anhydrase VA.

Substrate in series [3]: O=C=O
The experiment in a line: Activity at human carbonic anhydrase XII by spectrophotometry at pH 7.5.

Substrate in series [4]: O=C=O
The experiment in a line: Ratio of kcat to Km for human carbonic anhydrase XII.

Data on two proteins can be found in ChEMBL document CHEMBL1671790, “A new β-carbonic anhydrase from Brucella suis, its cloning, characterization, and inhibition with sulfonamides and sulfamates, leading to impaired pathogen growth” (Bioorg Med Chem, 2011).

B1: Carbonic anhydrase 5A, mitochondrial (Homo sapiens), P35218 (protein)
chain: MLGRNTWKTSAFSFLVEQMWAPLWSRSMRPGRWCSQRSCAWQTSNNTLHPLWTVPVSVPGGTRQSPINIQWRDSVYDPQLKPLRVSYEAASCLYIWNTGYLFQVEFDDATEASGISGGPLENHYRLKQFHFHWGAVNEGGSEHTVDGHAYPAELHLVHWNSVKYQNYKEAVVGENGLAVIGVFLKLGAHHQTLQRLVDILPEIKHKDARAAMRPFDPSTLLPTCWDYWTYAGSLTTPPLTESVTWIIQKEPVEVAPSQLSAFRTLLFSALGEEEKMMVNNYRPLQPLMNRKVWASFQATNEGTRS
In the case of B1, the kcat in series [1] was found to be 2.9 ×10⁵ /s. Also, the kcat/Km in series [2] turned out to be 2.9 ×10⁷ /M/s.

B2: Carbonic anhydrase 12 (Homo sapiens), O43570 (protein)
chain: MPRRSLHAAAVLLLVILKEQPSSPAPVNGSKWTYFGPDGENSWSKKYPSCGGLLQSPIDLHSDILQYDASLTPLEFQGYNLSANKQFLLTNNGHSVKLNLPSDMHIQGLQSRYSATQLHLHWGNPNDPHGSEHTVSGQHFAAELHIVHYNSDLYPDASTASNKSEGLAVLAVLIEMGSFNPSYDKIFSHLQHVKYKGQEAFVPGFNIEELLPERTAEYYRYRGSLTTPPCNPTVLWTVFRNPVQISQEQLLALETALYCTHMDDPSPREMINNFRQVQKFDERLVYTSFSQVQVCTAAGLSLGIILSLALAGILGICIVVVVSIWLFRRKSIKKGDNKGVIYKPATKMETEAHA
As to B2, the kcat in series [3] was 4.2 ×10⁵ /s. Besides, the kcat/Km in series [4] was found to be 3.5 ×10⁷ /M/s.
